In patent US20180186891A1 (PHILOGEN, published 2018):

Target: T1, biotinylated Mouse FAP extracellular domain (mouse, UniProt P97321 26-761, biotinylated (site not stated))
T1 construct: extracellular domain; also called murine antigen
T1 sequence (looked up): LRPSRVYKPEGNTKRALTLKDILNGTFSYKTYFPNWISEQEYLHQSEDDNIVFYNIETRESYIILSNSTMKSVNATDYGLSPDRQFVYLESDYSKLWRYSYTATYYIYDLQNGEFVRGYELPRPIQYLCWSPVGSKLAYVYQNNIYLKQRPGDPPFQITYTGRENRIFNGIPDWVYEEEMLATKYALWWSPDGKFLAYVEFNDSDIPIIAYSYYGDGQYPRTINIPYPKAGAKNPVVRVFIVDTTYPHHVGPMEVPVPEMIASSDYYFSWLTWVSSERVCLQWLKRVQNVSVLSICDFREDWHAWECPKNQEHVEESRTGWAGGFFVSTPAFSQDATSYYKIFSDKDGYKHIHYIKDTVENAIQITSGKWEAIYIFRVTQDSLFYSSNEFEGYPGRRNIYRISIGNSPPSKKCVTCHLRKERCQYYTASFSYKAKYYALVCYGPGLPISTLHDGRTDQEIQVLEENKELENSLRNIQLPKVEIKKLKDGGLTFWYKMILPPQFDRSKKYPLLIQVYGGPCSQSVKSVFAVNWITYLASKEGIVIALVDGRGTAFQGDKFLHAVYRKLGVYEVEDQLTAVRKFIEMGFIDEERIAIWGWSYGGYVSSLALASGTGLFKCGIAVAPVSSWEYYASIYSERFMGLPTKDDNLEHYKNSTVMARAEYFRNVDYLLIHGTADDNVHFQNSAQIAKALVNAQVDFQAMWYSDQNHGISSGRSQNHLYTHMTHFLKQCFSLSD
Assay: ELISA, biotinylated FAP extracellular domain on streptavidin strips, detection with anti-Myc 9E10
Experimental: ELISA: Streptawell High Bind strips (Roche) were coated with biotinylated Human or Mouse FAP extracellular domain at 100 nM. Cross reactivity with human and murine antigen of the anti-FAP F5 antibody was assessed by detection with the anti-Myc antibody 9E10 and an HRP-conjugated anti-Murine Fc antibody (Sigma). Calorimetric detection of antibody-antigen binding was performed using BM-Blue POD soluble substrate (Roche).

binding result: binds
B1: antibody F5 (in scFv format) (scFv, V domains shown)
VH: EVQLLESGGGLVQPGGSLRLSCAASGFTFSPAYMSWVRQAPGKGLEWVSAISGSGGSTYYADSVKGRFTISRDNSKNTLYLQMNSLRAEDTAVYYCAKGWRAFDYWGQGTLVTVSS
VL: EIVLTQSPGTLSLSPGERATLSCRASQSVSRNYLAWYQQKPGQAPRLLIYGASSRATGIPDRFSGSGSGTDFTLTISRLEPEDFAVYYCQQSLGYPPTFGQGTKVEIK
notes: Tested as a single-chain Fv; Detection with anti-Myc antibody 9E10 implies a myc tag; also called F5 antibody; anti-FAP F5 antibody
